Experimental data published in patent US20200392227A1 (LYVGEN BIOPHARMA, published 2020).
Read-outs that look alike come from different tables or passages of the source.

How the values were obtained:
[1] = biological target: T1, human FcγRIIC expressed on CHO cells (human, UniProt P31995 43-323); assay: FACS, CHO cells expressing FcγRIIC
T1 construct: whole, on cells
T1 sequence (looked up): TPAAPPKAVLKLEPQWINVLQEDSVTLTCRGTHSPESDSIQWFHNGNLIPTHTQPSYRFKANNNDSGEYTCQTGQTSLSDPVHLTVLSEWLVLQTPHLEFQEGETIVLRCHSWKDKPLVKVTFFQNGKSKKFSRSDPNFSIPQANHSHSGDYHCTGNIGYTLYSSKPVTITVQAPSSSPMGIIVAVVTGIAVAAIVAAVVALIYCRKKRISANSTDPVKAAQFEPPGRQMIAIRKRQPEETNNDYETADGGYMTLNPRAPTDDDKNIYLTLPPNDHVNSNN
Protocol: FIGS. 1A-1W are charts showing binding activity of various IgG variants as indicated to different types of Fcγ receptors expressed on CHO-K1 cells at the various concentrations as indicated. The concentrations of each IgG variant, from left to right, are 0 μg/ml, 0.3 μg/ml, 1 μg/ml, 3 μg/ml, and 10 μg/ml in FIGS. 1A-1C, 1E-J, 1L-1M, 1P-1R, and 1T-1V. For FIGS. 1D, 1K, 10, 1S, and 1w the bars, from left to right, correspond to the following concentrations of IgG variant: 0.3 μg/ml, 1 μg/ml, 3 μg/ml, and 10 μg/ml.
(§1) For FACS analysis of the IgG mutants' binding to different FcγRs, FcγR overexpressing CHO cells were harvested using trypsin-EDTA and were suspended in cold staining buffer (3% BSA in PBS). Test IgG mutants, which were diluted in staining buffer, were added into the cells. The mixture was incubated 4° C. for 2 hours, and then washed twice with cold staining buffer and re-suspended in PE-labeled anti-human IgG followed by incubation at 4° C. for 2 hours. The mixture was washed twice with staining buffer and re-suspended in 2% PFA in PBS for FACS.

[2] = biological target: T2, human FcRI protein (MednaBio, E1031) (human, UniProt P12314 16-288, limits assumed); assay: BLI
T2 construct: Bought; loaded on anti-penta-HIS biosensors; also called FcγRI
Protocol: (§2) These IgG mutants were tested for binding to a panel of human Fc receptors (FcRs), including FcRn, using the Octet Red96 System (ForteBio, Model #Red96). Human FcR proteins were purchased commercially (FcRn, MednaBio, E1032; FcRI, MednaBio, E1031; FcRIIA, MednaBio, E1033; FcRIIB/C, MednaBio, E1034; FcRIIIA-F158, MednaBio, E1036; FcRIIIA-V158, MednaBio, E1035; FcRIIIB, MednaBio, E1037). All Fey receptor assays were performed at pH 7.2; all FcRn assays were performed at pH 6. The Fey receptors were loaded onto anti-penta-HIS1K (ForteBio, Cat #18-5122) biosensors at a concentration of 20 μg/mL. The loaded biosensors was then be dipped into an 8-point 1:3 dilution series of the test IgG molecules (including controls and the mutants described herein) in PBS with 0.1% BSA, 0.02% Tween-20 (pH 7.2) at a starting concentration of 300 nM. Kinetic analysis was performed using a 1:1 binding model and global fitting.

[3] = biological target: T3, human FcRIIIA-F158 protein (MednaBio, E1036) (human, UniProt P08637 17-208); assay: BLI
T3 construct: Bought; also called FcγRIIIA(F)
Protocol: as §2

[4] = biological target: T4, human FcRIIB/C protein (MednaBio, E1034) (human, UniProt P31994 43-217, limits assumed); assay: BLI
T4 construct: Bought as FcRIIB/C; also called FcγRIIB; CD32B
T4 sequence (looked up): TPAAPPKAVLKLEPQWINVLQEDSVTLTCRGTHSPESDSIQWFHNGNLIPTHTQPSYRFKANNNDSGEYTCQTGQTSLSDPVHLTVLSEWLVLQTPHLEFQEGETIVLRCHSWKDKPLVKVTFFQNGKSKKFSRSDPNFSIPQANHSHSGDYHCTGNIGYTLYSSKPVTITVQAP
Protocol: as §2

[5] = biological target: T5, human FcRIIIA-V158 protein (MednaBio, E1035) (human, UniProt P08637 17-208); assay: BLI
T5 construct: Bought; also called FcγRIIIA(V); FcgRIIIA(V)
Protocol: as §2

[6] = biological target: T6, human FcRn protein (MednaBio, E1032) (human, UniProt P55899 24-297; P61769 21-119); assay: BLI
T6 construct: Bought; assays at pH 6
Protocol: as §2

[7] = biological target: T7, human FcRIIIB protein (MednaBio, E1037) (human, UniProt O75015 17-200); assay: BLI
T7 construct: Bought; also called FcγRIIIB; FcgRIIIB
Protocol: as §2

[8] = biological target: T8, human FcRIIA protein (MednaBio, E1033) (human, UniProt P12318 34-218, limits assumed); assay: BLI
T8 construct: Bought; also called FcγRIIA
T8 sequence (looked up): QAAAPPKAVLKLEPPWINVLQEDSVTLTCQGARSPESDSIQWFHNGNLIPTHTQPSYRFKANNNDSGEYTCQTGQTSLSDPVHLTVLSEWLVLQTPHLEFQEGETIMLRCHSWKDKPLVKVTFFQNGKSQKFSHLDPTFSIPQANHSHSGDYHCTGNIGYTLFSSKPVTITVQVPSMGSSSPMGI
Protocol: as §2

[9] = biological target: T6, human FcRn protein (MednaBio, E1032); assay: BLI; remark: listed apart in the source
Summary of the method: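 Binding was measured by biolayer interferometry on an Octet Red96 System, with commercial human Fc receptor proteins loaded at 20 μg/mL onto anti-penta-HIS biosensors. Sensors were dipped into an 8-point 1:3 dilution series of test IgG starting at 300 nM in PBS with 0.1% BSA and 0.02% Tween-20. Fcγ receptor assays ran at pH 7.2 and FcRn assays at pH 6. Kd, kon and koff came from global fitting to a 1:1 binding model.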

[10] = biological target: T9, human FcγRI expressed on CHO cells (human, UniProt P12314 16-374); assay: FACS, CHO cells expressing FcγRI
T9 construct: whole, on cells
Protocol: as §1

T2 sequence (P12314 16-288 limits assumed): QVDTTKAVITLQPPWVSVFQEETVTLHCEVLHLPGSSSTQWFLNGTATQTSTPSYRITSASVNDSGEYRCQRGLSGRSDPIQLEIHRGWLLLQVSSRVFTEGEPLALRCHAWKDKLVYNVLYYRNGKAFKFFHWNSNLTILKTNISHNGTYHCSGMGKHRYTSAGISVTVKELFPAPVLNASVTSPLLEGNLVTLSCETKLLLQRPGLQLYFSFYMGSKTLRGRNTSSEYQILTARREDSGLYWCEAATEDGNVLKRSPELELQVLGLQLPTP
T6 sequence (P55899 24-297 limits assumed, form in doubt, chain 1 of 2): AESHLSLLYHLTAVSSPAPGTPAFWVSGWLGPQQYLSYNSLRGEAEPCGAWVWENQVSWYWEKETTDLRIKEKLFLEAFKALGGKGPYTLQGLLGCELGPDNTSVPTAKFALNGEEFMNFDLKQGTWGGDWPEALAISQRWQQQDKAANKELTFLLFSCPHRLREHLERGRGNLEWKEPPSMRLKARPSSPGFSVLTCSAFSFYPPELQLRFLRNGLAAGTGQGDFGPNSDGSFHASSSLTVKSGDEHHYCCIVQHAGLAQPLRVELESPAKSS
T6 sequence (P61769 21-119 limits assumed, form in doubt, chain 2 of 2): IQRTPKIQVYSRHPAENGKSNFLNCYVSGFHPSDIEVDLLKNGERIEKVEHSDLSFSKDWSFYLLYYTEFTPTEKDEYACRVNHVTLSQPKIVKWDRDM
T3 sequence (P08637 17-208 limits assumed): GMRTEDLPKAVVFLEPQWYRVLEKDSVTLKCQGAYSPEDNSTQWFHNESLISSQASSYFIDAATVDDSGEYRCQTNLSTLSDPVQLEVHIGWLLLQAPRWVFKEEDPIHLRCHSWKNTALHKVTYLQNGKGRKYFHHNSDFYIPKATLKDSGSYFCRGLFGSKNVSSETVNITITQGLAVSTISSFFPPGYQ
T5 sequence (P08637 17-208 F176V): as the sequence (P08637 17-208 limits assumed) above, with F160V counted along it
T7 sequence (O75015 17-200 limits assumed): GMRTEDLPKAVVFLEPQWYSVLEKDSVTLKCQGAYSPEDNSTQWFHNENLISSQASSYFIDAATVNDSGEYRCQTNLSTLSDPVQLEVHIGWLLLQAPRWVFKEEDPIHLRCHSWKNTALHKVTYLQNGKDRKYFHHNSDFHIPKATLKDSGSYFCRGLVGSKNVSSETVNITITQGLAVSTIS
T9 sequence (P12314 16-374): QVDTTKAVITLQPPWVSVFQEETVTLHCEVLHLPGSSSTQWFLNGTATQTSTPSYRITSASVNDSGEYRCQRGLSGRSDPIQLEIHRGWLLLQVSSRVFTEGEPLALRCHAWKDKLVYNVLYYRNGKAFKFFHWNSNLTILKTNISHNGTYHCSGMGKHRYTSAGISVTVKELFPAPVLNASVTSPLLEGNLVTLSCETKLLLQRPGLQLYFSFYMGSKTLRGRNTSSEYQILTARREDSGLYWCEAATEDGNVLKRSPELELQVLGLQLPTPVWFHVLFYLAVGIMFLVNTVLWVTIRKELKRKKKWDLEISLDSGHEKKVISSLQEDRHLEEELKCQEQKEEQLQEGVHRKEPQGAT

B1: anti-CD137 IgG1 with Fc variant G1m1 (antibody)
heavy: EVQLVQSGAEVKKPGESLRISCKGSGYSFSTYWISWVRQMPGKGLEWMGKIYPGDSYTNYSPSFQGQVTISADKSISTAYLQWSSLKASDTAMYYCARGYGIFDYWGQGTLVTVSSASTKGPSVFPLAPSSKSTSGGTAALGCLVKDYFPEPVTVSWNSGALTSGVHTFPAVLQSSGLYSLSSVVTVPSSSLGTQTYICNVNHKPSNTKVDKKVEPKSCDKTHTCPPCPAPELLSVFLFPPKPKDTLMISRTPEVTCVVVDVSHEDPEVKFNWYVDGVEVHNAKTKPREEQYNSTYRVVSVLTVLHQDWLNGKEYKCKVSNKALPAPIEKTISKAKGQPREPQVYTLPPSREEMTKNQVSLTCLVKGFYPSDIAVEWESNGQPENNYKTTPPVLDSDGSFFLYSKLTVDKSRWQQGNVFSCSVMHEALHNHYTQKSLSLSPGK
light: SYELTQPPSVSVSPGQTASITCSGDNIGDQYAHWYQQKPGQSPVLVIYQDKNRPSGIPERFSGSNSGNTATLTISGTQAMDEADYYCATYTGFGSLAVFGGGTKLTVLGQPKAAPSVTLFPPSSEELQANKATLVCLISDFYPGAVTVAWKADSSPVKAGVETTTPSKQSNNKYAASSYLSLTPEQWKSHRSYSCQVTHEGSTVEKTVAPTECS
notes: copies: 2 + 2
B1 was tested, and the binding result [1] was “no binding (tested: 10 ug/ml)”, the Kd [2] was 200 nM and the koff [2] was 0.13 s⁻¹. It also gave a kon [2] of 650000 M⁻¹ s⁻¹, a Kd [3] of 300 nM and a koff [3] of 0.1 s⁻¹. For the same binder, the kon [3] was 350000 M⁻¹ s⁻¹, the binding result [4] was “no binding (tested: 300 nM)” and the binding result [5] was “no binding (tested: 300 nM)”. It also gave a Kd [6] of 11 nM, a koff [6] of 0.0078 s⁻¹ and a kon [6] of 700000 M⁻¹ s⁻¹. The binding result [7] was “no binding (tested: 300 nM)”, the Kd [8] was 440 nM and the koff [8] was 0.11 s⁻¹. It also gave a kon [8] of 250000 M⁻¹ s⁻¹.

B2: anti-CD137 IgG2 with Fc variant G2m2 (antibody)
heavy: EVQLVQSGAEVKKPGESLRISCKGSGYSFSTYWISWVRQMPGKGLEWMGKIYPGDSYTNYSPSFQGQVTISADKSISTAYLQWSSLKASDTAMYYCARGYGIFDYWGQGTLVTVSSASTKGPSVFPLAPCSRSTSESTAALGCLVKDYFPEPVTVSWNSGALTSGVHTFPAVLQSSGLYSLSSVVTVPSSNFGTQTYTCNVDHKPSNTKVDKTVERKCCVECPPCPAPPFLGGPSVFLFPPKPKDTLMISRTPEVTCVVVDVSHEDPEVQFNWYVDGVEVHNAKTKPREEQFNSTFRVVSVLTVVHQDWLNGKEYKCKVSNKGLPAPIEKTISKTKGQPREPQVYTLPPSREEMTKNQVSLTCLVKGFYPSDIAVEWESNGQPENNYKTTPPMLDSDGSFFLYSKLTVDKSRWQQGNVFSCSVMHEALHNHYTQKSLSLSPGK
light: B1 light
notes: copies: 2 + 2
With B2 the Kd [2] was 2 nM, the koff [2] was 0.00091 s⁻¹ and the kon [2] was 440000 M⁻¹ s⁻¹. The Kd [3] was 250 nM, the koff [3] was 0.07 s⁻¹ and the kon [3] was 280000 M⁻¹ s⁻¹. For the same binder, the Kd [4] was 160 nM, the koff [4] was 0.099 s⁻¹ and the kon [4] was 620000 M⁻¹ s⁻¹. It also gave a Kd [5] of 160 nM, a koff [5] of 0.033 s⁻¹ and a kon [5] of 210000 M⁻¹ s⁻¹. It also gave a Kd [6] of 10 nM, a koff [6] of 0.0091 s⁻¹ and a kon [6] of 900000 M⁻¹ s⁻¹. The binding result [7] was “no binding (tested: 300 nM)”, the Kd [8] was 68 nM and the koff [8] was 0.057 s⁻¹. It also gave a kon [8] of 840000 M⁻¹ s⁻¹.

B3: anti-CD137 IgG4 with Fc variant G4m18 (antibody)
heavy: EVQLVQSGAEVKKPGESLRISCKGSGYSFSTYWISWVRQMPGKGLEWMGKIYPGDSYTNYSPSFQGQVTISADKSISTAYLQWSSLKASDTAMYYCARGYGIFDYWGQGTLVTVSSASTKGPSVFPLAPCSRSTSESTAALGCLVKDYFPEPVTVSWNSGALTSGVHTFPAVLQSSGLYSLSSVVTVPSSSLGTKTYTCNVDHKPSNTKVDKRVESKYGPPCPPCPAPEFLSVFLFPPKPKDTLMISRTPEVTCVVVDVSQEDPEVQFNWYVDGVEVHNAKTKPREEQFNSTYRVVSVLTVLHQDWLNGKEYKCKVSNKGFPSSIEKTISKAKGQPREPQVYTLPPSQEEMTKNQVSLTCLVKGFYPSDIAVEWESNGQPENNYKTTPPVLDSDGSFFLYSRLTVDKSRWQEGNVFSCSVMHEALHNHYTQKSLSLSLGK
light: B1 light
notes: copies: 2 + 2
B3 was tested, and the Kd [9] was 11 nM, the koff [9] was 0.0068 s⁻¹ and the kon [9] was 610000 M⁻¹ s⁻¹. B3: binds [10].

B4: anti-CD137 IgG2 with Fc variant G2m10 (antibody)
heavy: EVQLVQSGAEVKKPGESLRISCKGSGYSFSTYWISWVRQMPGKGLEWMGKIYPGDSYTNYSPSFQGQVTISADKSISTAYLQWSSLKASDTAMYYCARGYGIFDYWGQGTLVTVSSASTKGPSVFPLAPCSRSTSESTAALGCLVKDYFPEPVTVSWNSGALTSGVHTFPAVLQSSGLYSLSSVVTVPSSNFGTQTYTCNVDHKPSNTKVDKTVERKCCVECPPCPAPEVSSVFLFPPKPKDTLMISRTPEVTCVVVDVSHEDPEVQFNWYVDGVEVHNAKTKPREEQFNSTFRVVSVLTVVHQDWLNGKEYKCKVSNKGFPAPIEKTISKTKGQPREPQVYTLPPSREEMTKNQVSLTCLVKGFYPSDIAVEWESNGQPENNYKTTPPMLDSDGSFFLYSKLTVDKSRWQQGNVFSCSVMHEALHNHYTQKSLSLSPGK
light: B1 light
notes: copies: 2 + 2
B4: no binding (tested: 10 ug/ml) [10]; no binding (tested: 10 ug/ml) [1]; no binding (tested: 300 nM) [2]. B4: no binding (tested: 300 nM) [3]; no binding (tested: 300 nM) [4]; no binding (tested: 300 nM) [5]. For the same binder, the Kd [6] was 21 nM, the koff [6] was 0.0088 s⁻¹ and the kon [6] was 420000 M⁻¹ s⁻¹. The binding result [7] was “no binding (tested: 300 nM)”, the Kd [8] was 17000 nM and the koff [8] was 0.35 s⁻¹. The kon [8] was 21000 M⁻¹ s⁻¹.
